Measured values reported in the nanobody polyreactivity screen of Harvey et al. (2022).

Test: yeast display, Sf9 membrane polyspecificity reagent, FACS + sequencing; frameworks hold sequencing errors
Method in brief: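 In a synthetic yeast display library (Saccharomyces cerevisiae BJ5465), nanobody expression was induced with galactose for 36–48 hours. FACS gates were set low and high (top ~1%) using anti-HA fluorescence for expression and streptavidin fluorescence for binding of the Sf9 membrane reagent. Each polyreactivity label is drawn from the gate of origin.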

Sequence | polyreactivity (PSR sort gate)
QVQLVESGGGLVQAGGSLRLSCAASGRIFRGYAMGWSRQAPGKERELVAAITSRGGSTYADSVKGRFTISRDNAKNTVYLQMNSLKPEDTAVYYCNAGYRADSSKLVFRGYPRYDYWGQGTQVTVSS | low polyreactivity
QVQLVESGGGLVQAGGSLRLSCAASGSTFPVYAMGWYRQAPGKERELVAAITSGGSTYYADSVKGRFTISRDNAKNTVYLQMNSLKPEDTAVYYCAAEDSSPAYNHWGQGTQVTVSS | low polyreactivity
QVQLVESGGGLVQAGGSLRLSCAASGSIFGHYAMGWYRQATGKERELVATISRRGGSTYYADSVKVRFTISRDNAKNTVYLQMNSLKPEDTAVYYCAADSKGSLYGYWGQGTQVTVSS | high polyreactivity
QVQLVESGGGLVQAGGSLRLSCAASGRIFQYYTMGWNRQAPGKERELVAAITYSGGDTRYADSVKGRFTISRDTAKNTVYLQMNSLKPEDTAVYYCAADYFDQYQYGVWTYGYWGQGTQVTVSS | low polyreactivity
QVQLVESGGGLVQAGGSLRLSSGASGRIFAVYAMGWYRQAPGKERELVAAISYIGGSTYYADSVKGRFTISRDNAKNSVYLQMNSLKPEDTAVYYCATDSHDDTGAYDYWGQGTQVTVSS | low polyreactivity
QVQLVESGGGLVQAGGSLRLSCAASGSIFFQNAMGWYRQAPGKERELVATITSSVGSTYYADSVKGRFTISRDNAKNTVYFQMNSLKPEDTAVYYCNVRFFSAALWYTYFGYDYWGQGTQVTVSS | low polyreactivity
QVQLVESGGGLVQPGGSLRLSCAASGSNFEPYAMGWYRQAPGKERELVAAISSGGSTNYADSVKGRFTISRDNAKNTVYLQMNSLKPEDTAVYFCAAAYYTVGWLFYDYWYPFAYYYWGQGTQVTVSS | low polyreactivity
QVQLVESGGGLVQAGGSLRLSCAASGRIFYSYGMGWYRQAPGKERELVASITISGGGSTYYADSVKGRFTISRDNAKNTVYLQMNSLKPEDTAVYYCAATRTVWKYIYDYWGQGTQVTVSS | high polyreactivity
QVQLVESGGGLVQAGGSLRLSCAASGGIFTSYDMGWYRQAPAKEREFVAGISDSGGSTYYADSVKGRFTISRDNAKNTVYLQMNSLKPEDTAVYYFAADAWYVWEYWWQTEDDYWGQGTEVTVSS | high polyreactivity
QVQLVESGGGLVQAGGSLRLSCAASGITFRPYTMGWYRQAPGKERELVATINWSGGSTYYADSVKGRFTISRDNAKNTVYLQMNSLKPEDTAVYYCAVTWYVRRWYGYWGQGTQVTVSS | high polyreactivity
QVQLVESGGGLVQAGGSLRLSCAASGRTFAQYAMGWYRQAPGKERELVAGISRSGGSTYYADCVKGRFTISRDNAKNTVYLQMNSLKPEDTAVYYCAARWRGARWYYYWGQGTQVTVSS | high polyreactivity
QVQLVESGGGLVQAGGSLRLSCAASGYNFARYAMGWDRQAPGKEREFVAAITWSGGTTYYADSVKGRFTISRDNAKNTVYLQMNRLKPEDTAVYYCAARGYYTEAASSKRGNYWGQGTQVTVSS | high polyreactivity
QVQLVESGGGLVQAGGSLRLSCAASGRTFFYYTMGWYRQAPGKERELVAAISRSGGSTYYADSVKGRFTITRDKAKNTVYLQMNSLKPEDTAVYYCAADRSRNFDWGQGTQVTVSS | high polyreactivity
QVQLVESGGGLVQAGGSLRLSCAASGITFYGNAMGWYRQAPGKERELVAGIRSSGGDTYYADSVKGRFTISRDNAKNTVYLQMNSLKPEDTAVYYCAADFDWFIWGYDYWGQGTQVTVSS | low polyreactivity
QVQLVESGGGLVQAGGSLRLSCAASGSIFEWYAMGWYRQAPGKERELVAAINSGGSTYYADSVQGRFTISRDNAKNTVYLQMNSLKPEDTAVYYCNYDTLLQDRLGDWYDYDYWGQGTQVTVSS | low polyreactivity
QVQLQESGDGLVQAVGSLRLSCAASGYISGYYYMGWYRQAPGKERELVAGIDAFGSSTNYADCVKGRFTIRRDNAKNTVYLLMNSPKPEDTAVFYCAAEFDDWDYHWYWGQGTQVTVSS | low polyreactivity
QVQLVESGGGLVQAGGSLRLSCAASGRIFGRYVMGWYRQAPGKERELVARIRRNGGSTYYADSVKGRFTISRDNAKNTVYLQMNSLKPDDTAVYDCAAESYDTWRRYESWGQGTQVTVSS | high polyreactivity
QVQLVESGGGLVQAGGSLRLSCAASGSTFGFYAMGWFRQAPGKERELVAAISSSGSTYYADSVKGRFTISRDNAKNTVYVQINRLKPEDTAVYYCYADYWRYISSYDYWGQGTQVTVSS | low polyreactivity
QVQLVESGGGLVQAGGSLRLSCAASGSTIFYNAMGWYSKAPGKERELVAAITDSGGSTYYADSVKGRFTISRDNAKNTVYLQMNSLKPEDTAVYYCAKRNFDNPIFDYWGQGTQVTVSS | low polyreactivity
QVQLVESGGGLVQAGGSLRLSCAASGLILSSNARGWYRQAPGKETELVAAITWDGDRTYADSVKGRFTISRDNAKNTVYLQMNSLKPEDTAVYYCAAYPYYYYGYDYWGQGTQVTVSS | low polyreactivity
QVQLVESGGGLVQAGGRLRLSCAASGFTLVGYAMGWSRQAPGKERELVAAISSGGGSTYYADSVKGRFTISRDNAKNTVYLQMNSLKPEDTAVYYCAVYVDYYGYGYWGQGTQVTVSS | high polyreactivity
QVQLVESAGGLVQARGSLRLSCAASGRIFDVNAMGWYRQAPGKERELVAAISSGGNTKYADSVKGRFTISRDNAKNTVYLQMNSLKPEDTAVYYCNADGKAGGDSDYWGQGTQVTVSS | low polyreactivity

Sequence | polyreactivity (PSR sort gate)
QVQLLETGGGLVQAGGSLRLSCAPSGSIFDSYAMGWYRQAPGKERELVATINTSGGSTYYADSVKGRFTIHDNAKNTVYLQMNSLKPEDTAVYYCNAGRWDYWQNNFGDYGYWGQGTQVTVSS | low polyreactivity
QVQLVESGGGLVQAGGSLRLSCAASGSNFGYYTLGWYRQAPGKERELVAAIRYGDGSTNYADSVKGRFTISRDNAKNTVYLKMNSLKPEDTAVYYCATRSQRGYRGYNYWGQGTQVTLSS | high polyreactivity
QVQLVESGGGLVQAGGSLRLSCAASGSPFGSNAMGWYRQAPGKERELVAAISYGGDRTYYADSVKGRFTISRDNAKNTVYLQMISLKPEDTALYYCNARIYKGYNYWGQGTQVTVSS | high polyreactivity
QVQLVESGGGLVQAGGSLRLSCAASGRIFRRYAMGWYRQAPGTERELVAAITASGGITYYADSVKGRFTISRDNAKNTVYLQMNSLKPEDTAVYYCAARGSSGYDYWGQGTQVTVSS | high polyreactivity
QVQLVESGGGLVQAGGSLRLSCAASGSIFNHYAMGWYRQAPGKERELVAAISGSGGSTYYADSVKGRFTISRDNAQNTVYLQMYSLKPEDTAVYYCAARILRHWVSAEYYWGQGTQVTVSS | low polyreactivity
QVQLVESGGGLVQAGGSLRLSCAASGRTFWYYEMGWYRQAPGKERELVATINNVGSTHYADSVKGRFTISRDNAKNTVYLQMNSLKPEDTAVYYCGRASYGKMDYWGQGTQVTVSS | high polyreactivity
QVQLVESGGGLVQAGGSLRLSCAASGSTFAWYAMGWYRQAPGKERELVAVITSTGRTYYADSVKGRFTISRDNAKNTVYLQMNSLKPEDSAVYYCAAQYGGGYLKPYRREYWGQGTQVTVSS | high polyreactivity
QVQLVESGGGLVQAGGSLRLSCAASGRTFYRNAMGWYRQAPGKERELVAAISQRGGRTYYADSVKGRFTISRDNAKNTVYLQMNSLKPEDTAVYYCAASPIYPVYRRHGYWGQGTQVTVSS | high polyreactivity
QVQLVESGGGLVQAGGSLRLSCAASGSTFRTYAMGWYRQAPGKERELVAAISGDTSTNYADSVKGRFTISRDNAKNTVYLQMNSLKPEDTAVYYCAAYWTTYATLWYDYWGQGTQVTVSS | low polyreactivity
QVQLVESGGGLVQAGGSLRLSCAASGRIRFNVMGWYRQAPGKERELVAAITGGGTTYYADSVKGRFTISRDNAKNTVYLQMNSLKPEDTAVYYCAARALYSRINQIPSYYWGQGTQVTVSS | high polyreactivity
QVQLQESGGGLVQAGGSLRLSCAASGTIYWLWAMGWYCLAPGKERELVASISSGGTTYHADSVKGRFTISRDNAKYSVYLQMNSLKPEDTAVFYSAAFYVASAKLGYWGQGSQVTVSS | low polyreactivity
QVQLVESGGGLVQAGGSLRLSCAAYGGTFYRYAMGWYRQAPGKERELVAVISKRGGTTYYADSVKGRFTISRDNAKNTVYLQMNSLKPEDTAVYYCADRPYYWGQGTQVTVSS | high polyreactivity
QVQHVESGGGLVQAGGSLRLSCAASGSIFVYYAMGGYRQAPGKERELVAAISRSGGNTYYADSVKGRFTISRDNAKNTVYLQMNSLKPEDTAVYYCAAQPYVEGTKRYYWGQGTQVTVSS | high polyreactivity
QEQLVESGGGLVQAGGSLRLSCAAYGSTYNSYVMGWNRQAPVKERELVAAISTSGGRTYYADSVKGRFTISRDNAKNTVYLKMISLKPEDTAVYYCNRVFLKYYESTHWRDYWGQGTKVTVSS | high polyreactivity
QDQLVESGGGLVQAGGSLRLSCAASGSIFVSYTMGWYRQAPGKERELVAAITRSGGSTYYADSVKGRFTISRDNAKNTVYLQLNSLKPEDTAVYYCNATPANKYYRSTRGYAYNYWGQGTQVTVSS | low polyreactivity
QVQLVESGGGLVQAGGSLRLSCAASGRIFNYYAMGWYRQAPGKERELVAAISSGGITNYADSVKGRFTISRDNAKNTVYLQMNSLKPEDTAVYYCAADRSNRPYYRQGYDYWGQGTQVTVSS | high polyreactivity
QVQLVESGGGLVQAGSTLRLSCAASGRIFDLYTMGWYRQAPGKERELVAAIRWSDGSTYYADSVKGRFTISRDYAKNTVYLQMNSLKPEDTAVYYCAADTRTSYYNDDYDYWGQGTQVTVSS | low polyreactivity
QVQLVESGGGLVQAGGSLRLSCAASGFTFTPNAMGWYRQAPGKERELVAAISGSGGSTYYADSVKGRFTISRDNAKNTVYLQMNSLKPEDTAVYYCAKRRGVYTHWYDYWGQGTQVTVSS | high polyreactivity
QVQLVESGGGLVQAGGSLRLSCAASGRIFPYYAMGWYRQAPGKERELVAAISQSDGSTYYADSVKGRFTISRDNEKNTVYLQMNSLKPEVTAVYYWAKRQASYTQHRKGRGDYWGQGTQVTVSS | low polyreactivity
QVQLVESGGGLVQAGGSLRLSCAPSGSILGSNAMGGYRQAPGKERELVAAITSSGGSTYYADSVKGRFTISRDNAKNTVYLQMNSLKPEDTAVYYCNADATDSYPEKDYHDSWGQGTQVTVSS | low polyreactivity
QVQLVESGGGLVQAGGSLRLICAASGSIFGHNAMGWYRQAPGKERELVAAINASDGNTYYADSVKGRFTISRDNAKNTVYLQMNSLKPEDTAVYYCAAEGYFDHYYYYRVYSWGQGTQVTVSS | low polyreactivity
